Measurements: article PMC3491808 (Journal of biomolecular NMR, 2011)
Non-standard residues stand in square brackets, D forms with d. No end group written: not given here. pT = C[C@@H](OP(=O)(O)O)[C@H](N)C(=O)O

Target: Pin1-PPIase (isolated catalytic PPIase domain of Pin1, residues 46-163) (human, UniProt Q13526 46-163)
Assay: NMR titration

Pin1-PPIase (isolated catalytic PPIase domain of Pin1, residues 46-163), sequence (Q13526 46-163): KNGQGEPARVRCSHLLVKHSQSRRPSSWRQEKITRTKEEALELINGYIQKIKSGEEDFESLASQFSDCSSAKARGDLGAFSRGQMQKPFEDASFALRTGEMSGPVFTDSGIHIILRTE

Kd: 1.3 mM
Binder: GVVEVDAAV[pT]PEERHLSKMQQNGY (peptide, UniProt P05067-4 659-682, looked up) [pAPP659-682 (24-residue phosphopeptide, residues 659-682 of APP phosphorylated at T668)]
